Test results published in US20180118829A1 (JOUNCE THERAPEUTICS, published 2018).

How the values were obtained:
[1] = target: T1, Mouse PD-1 (monovalent antigen) (mouse, UniProt Q02242 25-167, limits assumed); experiment: ForteBio BLI, IgG on AHQ sensor, monovalent antigen in solution
T1 sequence (looked up): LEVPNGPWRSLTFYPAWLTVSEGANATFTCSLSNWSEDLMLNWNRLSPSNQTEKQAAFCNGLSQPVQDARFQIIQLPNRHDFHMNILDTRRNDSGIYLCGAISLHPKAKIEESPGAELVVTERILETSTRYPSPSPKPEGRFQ

[2] = target: Human PD-1 (monovalent antigen) (human, UniProt Q15116 25-167, limits assumed); experiment: as above
Chain of Human PD-1 (monovalent antigen) (Q15116 25-167 limits assumed): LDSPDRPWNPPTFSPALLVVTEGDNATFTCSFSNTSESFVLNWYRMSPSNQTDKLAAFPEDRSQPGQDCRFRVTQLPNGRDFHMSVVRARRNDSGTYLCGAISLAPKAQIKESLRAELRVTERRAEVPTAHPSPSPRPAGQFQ

[3] = target: Human PD-1 L128A ECD-Fc-His6 (human); experiment: BLI (ForteBio OctetRED96), PD-1 ECD-Fc-His6 panel; Reduced = affinity reduced >10-fold and <100-fold vs WT human PD-1
Chain of Human PD-1 L128A ECD-Fc-His6 (human) (chain, as listed by the source L128A L128A limits assumed): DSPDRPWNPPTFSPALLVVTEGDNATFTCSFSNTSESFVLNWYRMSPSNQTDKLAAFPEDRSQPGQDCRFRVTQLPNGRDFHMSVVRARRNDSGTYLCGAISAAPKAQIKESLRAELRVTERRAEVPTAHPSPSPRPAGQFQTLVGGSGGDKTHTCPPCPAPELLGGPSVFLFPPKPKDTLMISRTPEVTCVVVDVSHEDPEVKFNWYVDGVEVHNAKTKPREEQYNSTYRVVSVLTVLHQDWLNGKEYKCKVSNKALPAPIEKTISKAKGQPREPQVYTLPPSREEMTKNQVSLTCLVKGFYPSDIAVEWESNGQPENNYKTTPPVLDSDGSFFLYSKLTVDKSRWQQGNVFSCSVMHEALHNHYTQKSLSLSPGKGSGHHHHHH

[4] = target: Human PD-1 I126A ECD-Fc-His6 (human); experiment: as above
Chain of Human PD-1 I126A ECD-Fc-His6 (human) (chain, as listed by the source I126A I126A limits assumed): as the sequence (chain, as listed by the source L128A L128A limits assumed) above, with I101A, A103L counted along it

[5] = target: T2, Human PD-1 N33-Q167 ECD-Fc-His6 (human); experiment: BLI (ForteBio OctetRED96), PD-1 ECD-Fc-His6 panel; Y = affinity within ~5-fold of WT human PD-1
T2 construct: also called N-terminal truncated variant N33-Q167
T2 sequence (chain, as listed by the source limits assumed): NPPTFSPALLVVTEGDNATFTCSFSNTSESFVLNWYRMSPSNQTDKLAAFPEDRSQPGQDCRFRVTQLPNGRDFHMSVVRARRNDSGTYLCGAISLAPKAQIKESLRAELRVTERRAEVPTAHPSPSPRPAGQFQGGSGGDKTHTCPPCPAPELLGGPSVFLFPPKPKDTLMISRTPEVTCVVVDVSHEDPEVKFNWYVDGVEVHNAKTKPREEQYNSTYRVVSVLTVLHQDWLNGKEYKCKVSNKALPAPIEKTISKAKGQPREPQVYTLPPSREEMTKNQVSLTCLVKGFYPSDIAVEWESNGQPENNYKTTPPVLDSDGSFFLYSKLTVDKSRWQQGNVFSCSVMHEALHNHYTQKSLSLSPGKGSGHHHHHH

[6] = target: T3, Mouse PD-1 ECD-Fc-His6 (mouse); experiment: as above
T3 construct: also called Mouse WT PD-1 ECD-Fc fusion

[7] = target: T4, Cynomolgus monkey PD-1 ECD-Fc-His6 (cynomolgus monkey); experiment: as above
T4 construct: also called Cyno WT PD-1 ECD-Fc fusion
T4 sequence (chain, as listed by the source limits assumed): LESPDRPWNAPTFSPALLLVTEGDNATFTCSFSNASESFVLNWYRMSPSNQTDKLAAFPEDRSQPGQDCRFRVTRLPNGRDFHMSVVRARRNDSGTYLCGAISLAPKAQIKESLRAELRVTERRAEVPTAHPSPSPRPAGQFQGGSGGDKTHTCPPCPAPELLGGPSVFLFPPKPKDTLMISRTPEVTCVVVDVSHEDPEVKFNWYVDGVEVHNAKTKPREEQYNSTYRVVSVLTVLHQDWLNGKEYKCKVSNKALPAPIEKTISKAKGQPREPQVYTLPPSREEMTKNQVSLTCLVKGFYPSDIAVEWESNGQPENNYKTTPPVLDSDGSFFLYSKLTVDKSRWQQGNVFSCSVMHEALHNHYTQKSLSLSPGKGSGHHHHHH

[8] = target: Human PD-1 K78A ECD-Fc-His6 (human); experiment: as above
Chain of Human PD-1 K78A ECD-Fc-His6 (human) (chain, as listed by the source K78A K78A limits assumed): as the sequence (chain, as listed by the source L128A L128A limits assumed) above, with K53A, A103L counted along it

[9] = target: Human PD-1 D85G ECD-Fc-His6 (human); experiment: as above
Chain of Human PD-1 D85G ECD-Fc-His6 (human) (chain, as listed by the source D85G D85G limits assumed): as the sequence (chain, as listed by the source L128A L128A limits assumed) above, with D60G, A103L counted along it

[10] = target: Human PD-1 R86L ECD-Fc-His6 (human); experiment: as above
Chain of Human PD-1 R86L ECD-Fc-His6 (human) (chain, as listed by the source R86L R86L limits assumed): as the sequence (chain, as listed by the source L128A L128A limits assumed) above, with R61L, A103L counted along it

[11] = target: Human PD-1 D85G/R86L ECD-Fc-His6 (human); experiment: as above
Chain of Human PD-1 D85G/R86L ECD-Fc-His6 (human) (chain, as listed by the source D85G R86L D85G R86L limits assumed): as the sequence (chain, as listed by the source L128A L128A limits assumed) above, with D60G, R61L, A103L counted along it

[12] = target: Rat P129H PD-1 ECD-Fc-His6 (rat); experiment: as above
Chain of Rat P129H PD-1 ECD-Fc-His6 (rat) (chain, as listed by the source P129H P129H limits assumed): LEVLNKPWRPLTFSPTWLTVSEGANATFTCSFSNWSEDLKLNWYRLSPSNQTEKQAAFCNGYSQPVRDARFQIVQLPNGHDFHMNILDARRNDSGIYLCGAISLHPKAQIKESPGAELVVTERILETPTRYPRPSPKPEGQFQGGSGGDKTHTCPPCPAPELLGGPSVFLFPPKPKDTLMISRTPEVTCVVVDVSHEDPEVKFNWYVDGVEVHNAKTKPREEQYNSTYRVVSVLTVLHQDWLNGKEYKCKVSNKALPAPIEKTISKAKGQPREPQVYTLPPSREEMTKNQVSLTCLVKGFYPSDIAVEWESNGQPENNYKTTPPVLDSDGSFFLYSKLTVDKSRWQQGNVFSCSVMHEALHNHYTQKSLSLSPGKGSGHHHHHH

[13] = target: T5, Human PD-1 extracellular domain (ECD)-Fc-His6 (human); experiment: as above
T5 construct: also called Human WT PD-1 ECD-Fc fusion
T5 sequence (chain, as listed by the source limits assumed): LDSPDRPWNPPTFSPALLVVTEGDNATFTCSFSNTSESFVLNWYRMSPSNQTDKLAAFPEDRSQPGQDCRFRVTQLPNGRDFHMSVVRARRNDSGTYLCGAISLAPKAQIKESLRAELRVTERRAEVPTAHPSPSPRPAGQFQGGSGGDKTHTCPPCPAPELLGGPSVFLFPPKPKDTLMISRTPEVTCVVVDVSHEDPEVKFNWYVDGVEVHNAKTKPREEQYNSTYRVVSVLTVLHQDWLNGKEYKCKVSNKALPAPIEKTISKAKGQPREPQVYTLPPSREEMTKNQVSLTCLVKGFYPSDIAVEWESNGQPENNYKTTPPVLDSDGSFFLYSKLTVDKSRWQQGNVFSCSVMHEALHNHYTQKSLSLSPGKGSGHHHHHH

B1: antibody 13406 (antibody, V domains shown)
VH: QVQLVQSGAEVKKPGASVKVSCKASGYTFDQYYMHWVRQAPGQGLEWMGIINPSGGSTAYAQKFQGRVTMTRDTSTSTVYMELSSLRSEDTAVYYCARGGTYYDYTYWGQGTLVTVSS
VL: DIQMTQSPSTLSASVGDRVTITCRASQSISSWLAWYQQKPGKAPKLLIYEASSLESGVPSRFSGSGSGTEFTLTISSLQPDDFATYYCQQYNSFPPTFGGGTKVEIK
For B1, the Kd [1] was 3.5 nM and the Kd [2] was 3.2 nM.

B2: antibody 13405 (antibody, V domains shown)
VH: QVQLVQSGAEVKKPGASVKVSCKASGYTFASYYMGWVRQAPGQGLEWMGIINPAGGSTAYAQKFQGRVTMTRDTSTSTVYMELSSLRSEDTAVYYCARHEYGMDVWGQGTTVTVSS
VL: DIQMTQSPSTLSASVGDRVTITCRASQSISSWLAWYQQKPGKAPKLLIYEASSLESGVPSRFSGSGSGTEFTLTISSLQPDDFATYYCQQYNSFPPTFGGGTKVEIK
In the case of B2, the Kd [1] is reported as 7.2 nM and the Kd [2] is reported as 73 nM.

B3: 13407 Fab (Fab, V domains shown)
VH: QVQLVQSGAEVKKPGASVKVSCKASGYTFPSYYMHWVRQAPGQGLEWMGIINPEGGSTAYAQKFQGRVTMTRDTSTSTVYMELSSLRSEDTAVYYCARGGTYYDYTYWGQGTLVTVSS
VL: DIQMTQSPSTLSASVGDRVTITCRASQSISSWLAWYQQKPGKAPKLLIYEASSLESGVPSRFSGSGSGTEFTLTISSLQPDDFATYYCQQYNSFPPTFGGGTKVEIK
B3: binds [3]; binds [4]; binds [5]. B3: binds [6]; binds [7]; binds [8]. B3: binds [9]; binds [10]; binds [11]. B3: binds [12]; binds [13].

B4: antibody 13408 (antibody, V domains shown)
VH: QVQLVQSGAEVKKPGASVKVSCKASGYTFSDYYMHWVRQAPGQGLEWMGIINPSGGVTAYAQKFQGRVTMTRDTSTSTVYMELSSLRSEDTAVYYCARGGTYYDYTYWGQGTLVTVSS
VL: DIQMTQSPSTLSASVGDRVTITCRASQSISSWLAWYQQKPGKAPKLLIYEASSLESGVPSRFSGSGSGTEFTLTISSLQPDDFATYYCQQYNSFPPTFGGGTKVEIK
In the case of B4, the Kd [1] is reported as 5.3 nM and the Kd [2] is reported as 1.2 nM.

B5: antibody 13407 (antibody, V domains shown)
VH: QVQLVQSGAEVKKPGASVKVSCKASGYTFPSYYMHWVRQAPGQGLEWMGIINPEGGSTAYAQKFQGRVTMTRDTSTSTVYMELSSLRSEDTAVYYCARGGTYYDYTYWGQGTLVTVSS
VL: DIQMTQSPSTLSASVGDRVTITCRASQSISSWLAWYQQKPGKAPKLLIYEASSLESGVPSRFSGSGSGTEFTLTISSLQPDDFATYYCQQYNSFPPTFGGGTKVEIK
Work on B5 yielded a Kd [1] of 3.2 nM and a Kd [2] of 3.9 nM.

B6: antibody 12228 (antibody, V domains shown)
VH: QVQLVQSGAEVKKPGASVKVSCKASGYTFTSYYMHWVRQAPGQGLEWMGIINPSGGSTSYAQKFQGRVTMTRDTSTSTVYMELSSLRSEDTAVYYCARGGTYYDYTYWGQGTLVTVSS
VL: DIQMTQSPSTLSASVGDRVTITCRASQSISSWLAWYQQKPGKAPKLLIYEASSLESGVPSRFSGSGSGTEFTLTISSLQPDDFATYYCQQYNSFPPTFGGGTKVEIK
With B6 the Kd [1] was 6.3 nM and the Kd [2] was 49 nM.
